The target of experiment [1] is T1, wild-type human PTHR (human, UniProt Q03431 27-593).
T1 construct: whole, on cells; also called PTHR-WT; intact PTHR
T1 sequence (looked up): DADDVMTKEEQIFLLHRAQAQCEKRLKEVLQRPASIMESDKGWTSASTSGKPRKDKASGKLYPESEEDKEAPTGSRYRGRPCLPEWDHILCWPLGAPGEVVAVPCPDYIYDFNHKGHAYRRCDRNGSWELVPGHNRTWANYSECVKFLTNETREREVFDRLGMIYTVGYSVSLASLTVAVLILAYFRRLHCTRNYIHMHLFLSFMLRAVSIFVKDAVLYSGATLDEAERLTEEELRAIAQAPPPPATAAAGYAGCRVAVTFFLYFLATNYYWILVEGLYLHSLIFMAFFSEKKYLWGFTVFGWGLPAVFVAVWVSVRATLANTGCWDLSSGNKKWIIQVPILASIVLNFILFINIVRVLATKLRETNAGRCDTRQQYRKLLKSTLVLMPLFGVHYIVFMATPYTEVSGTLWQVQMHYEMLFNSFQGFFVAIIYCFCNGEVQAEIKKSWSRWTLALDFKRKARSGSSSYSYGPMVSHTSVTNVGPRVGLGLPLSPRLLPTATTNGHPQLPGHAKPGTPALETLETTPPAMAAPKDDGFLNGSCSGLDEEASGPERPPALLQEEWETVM
The experiment in a line: competition binding, HKRK-B7 cells, 125I-PTH(1-34) tracer. As for the experimental part:
Receptor binding—Binding to the wild-type human PTHR in intact HKRK-B7 cells and ROS 17/2.8 cells was assessed using ¹²⁵I-PTH(1-34) as a tracer radioligand, as described (Shimizu, M., (2001) Endocrinology 142:3068-3074). In brief, the cells in 24-well plates (about 500,000 cells per well) were incubated in binding buffer containing radioligand (about 100,000 cpm per well) with or without unlabeled peptide ligand (3×10⁻⁹ to 1×10⁻⁵ M) for four hours at 15° C. The binding mixture was then removed by aspiration, the cells were rinsed three times with binding buffer, lysed in 1 M NaOH, and the entire lysate was counted for gamma-irradiation in a gamma counter. Binding to PTHR-delNt in COS-7 cell membranes was assessed in 96-well, vacuum filtration plates (Multiscreen-Durapore HV, […], Millipore Corp., Millford, Mass.) using ¹²⁵I-[Aib^{1,3},M]PTH(1-15)NH₂ as a tracer radioligand, as described (Dean, T., (2006) Mol Endocrinol 20:931-942). In brief, cell membranes (20 μg/well) were incubated in membrane binding buffer containing radioligand (30,000 cpm/well) with or without unlabeled peptide ligand (3×10⁻⁹ to 1×10⁻⁵ M) for 90 minutes at 21° C. The plates were then subject to rapid vacuum filtration, the filters were washed once with buffer, detached from the plate and counted for gamma-irradiation in a gamma counter. Non-specific binding was defined as the binding observed in the presence of 1×10⁻⁶ M PTH(1-31)NH₂ for HKRK-B7 and ROS 17/2.8 cells, and 1×10⁻⁶ M [Aib^{1,3},M]PTH(1-15)NH₂ for PTHR-delNt. Specifically bound radioactivity was calculated as a percentage of the radioactivity specifically bound in the absence of competing ligand.
Cyclohexylalanine and glutamate substitutions were introduced into [Ala¹,Arg¹⁹]hPTH(1-31)NH₂. The helical residue values were calculated from [θ]₂₂₂, the mean-residue elipticities observed in the CD spectra at 222 nm. Competition binding studies were performed in intact HKRK-B7 cells stably transfected with the hPTHR using ¹²⁵I-[Nle^{8,21},Tyr³⁴]rPTH(1-34)NH ₂ tracer radioligand, and in membranes prepared from COS-7 cells transiently transfected with hPTHR-delNt and a negative-dominant Gαs using ¹²⁵I-[Aib^{1,3},Nle⁸,Gln¹⁰,Har¹¹,Ala¹²,Trp¹⁴,Tyr¹⁵]rPTH(1-15)NH₂ tracer radioligand. Binding values (nM) are means (+/−s.e.m.) of data from the number of experiments indicated (n).

For experiment [2], the target named is PTHR-delNt (human) (UniProt Q03431). The experiment in a line: competition binding, COS-7 membranes, 125I-[Aib1,3,M]PTH(1-15) tracer.
Experiment [3] addresses T1, wild-type human PTHR. The experiment in a line: competition binding, HKRK-B7 cells, 125I-PTH(1-34) tracer. The source holds these as a separate data set.

For orientation: IC50 means the concentration at which inhibition is half-maximal. A lower IC50 goes with greater potency in that assay.

Where no end group is shown, it is not given here. [ ]: non-standard residue; d: D form. Cha = N[C@@H](CC1CCCCC1)C(=O)O

B1: [Ala^1,Arg^19]hPTH(1-31)NH2 Lys^27→Cha (peptide)
peptide: AVSEIQLMHNLGKHLNSMRRVEWLRK[Cha]LQDV-NH2
modifications: N-terminus assumed
SMILES: CC[C@H](C)[C@H](NC(=O)[C@H](CCC(=O)O)NC(=O)[C@H](CO)NC(=O)[C@@H](NC(=O)[C@H](C)N)C(C)C)C(=O)N[C@@H](CCC(N)=O)C(=O)N[C@@H](CC(C)C)C(=O)N[C@@H](CCSC)C(=O)N[C@@H](Cc1c[nH]cn1)C(=O)N[C@@H](CC(N)=O)C(=O)N[C@@H](CC(C)C)C(=O)NCC(=O)N[C@@H](CCCCN)C(=O)N[C@@H](Cc1c[nH]cn1)C(=O)N[C@@H](CC(C)C)C(=O)N[C@@H](CC(N)=O)C(=O)N[C@@H](CO)C(=O)N[C@@H](CCSC)C(=O)N[C@@H](CCCNC(=N)N)C(=O)N[C@@H](CCCNC(=N)N)C(=O)N[C@H](C(=O)N[C@@H](CCC(=O)O)C(=O)N[C@@H](Cc1c[nH]c2ccccc12)C(=O)N[C@@H](CC(C)C)C(=O)N[C@@H](CCCNC(=N)N)C(=O)N[C@@H](CCCCN)C(=O)N[C@@H](CC1CCCCC1)C(=O)N[C@@H](CC(C)C)C(=O)N[C@@H](CCC(N)=O)C(=O)N[C@@H](CC(=O)O)C(=O)N[C@H](C(N)=O)C(C)C)C(C)C
notes: also called Cha^27 analog
Consider B1, for which the figures for the IC50 in experiment [1] and in experiment [2] were 91 nM and 629 nM, respectively. The fold change in binding affinity vs [Ala^1,Arg^19]PTH(1-31)NH2 in experiment [2] is less than 3 fold; in experiment [3], not above 6 fold.

B2: [Ala^1,Arg^19]hPTH(1-31)NH2 Val^21→Cha (peptide)
peptide: AVSEIQLMHNLGKHLNSMRR[Cha]EWLRKKLQDV-NH2
modifications: N-terminus assumed
SMILES: CC[C@H](C)[C@H](NC(=O)[C@H](CCC(=O)O)NC(=O)[C@H](CO)NC(=O)[C@@H](NC(=O)[C@H](C)N)C(C)C)C(=O)N[C@@H](CCC(N)=O)C(=O)N[C@@H](CC(C)C)C(=O)N[C@@H](CCSC)C(=O)N[C@@H](Cc1c[nH]cn1)C(=O)N[C@@H](CC(N)=O)C(=O)N[C@@H](CC(C)C)C(=O)NCC(=O)N[C@@H](CCCCN)C(=O)N[C@@H](Cc1c[nH]cn1)C(=O)N[C@@H](CC(C)C)C(=O)N[C@@H](CC(N)=O)C(=O)N[C@@H](CO)C(=O)N[C@@H](CCSC)C(=O)N[C@@H](CCCNC(=N)N)C(=O)N[C@@H](CCCNC(=N)N)C(=O)N[C@@H](CC1CCCCC1)C(=O)N[C@@H](CCC(=O)O)C(=O)N[C@@H](Cc1c[nH]c2ccccc12)C(=O)N[C@@H](CC(C)C)C(=O)N[C@@H](CCCNC(=N)N)C(=O)N[C@@H](CCCCN)C(=O)N[C@@H](CCCCN)C(=O)N[C@@H](CC(C)C)C(=O)N[C@@H](CCC(N)=O)C(=O)N[C@@H](CC(=O)O)C(=O)N[C@H](C(N)=O)C(C)C
Take B2: the IC50 in experiment [1] amounted to 74 nM; in experiment [2] it was 564 nM. The fold change in binding affinity vs [Ala^1,Arg^19]PTH(1-31)NH2 in experiment [2] was less than 3 fold; in experiment [3], not above 6 fold.

B3: [Ala^1,Arg^19]hPTH(1-31)NH2 Glu^22→Cha (peptide)
peptide: AVSEIQLMHNLGKHLNSMRRV[Cha]WLRKKLQDV-NH2
modifications: N-terminus assumed
SMILES: CC[C@H](C)[C@H](NC(=O)[C@H](CCC(=O)O)NC(=O)[C@H](CO)NC(=O)[C@@H](NC(=O)[C@H](C)N)C(C)C)C(=O)N[C@@H](CCC(N)=O)C(=O)N[C@@H](CC(C)C)C(=O)N[C@@H](CCSC)C(=O)N[C@@H](Cc1c[nH]cn1)C(=O)N[C@@H](CC(N)=O)C(=O)N[C@@H](CC(C)C)C(=O)NCC(=O)N[C@@H](CCCCN)C(=O)N[C@@H](Cc1c[nH]cn1)C(=O)N[C@@H](CC(C)C)C(=O)N[C@@H](CC(N)=O)C(=O)N[C@@H](CO)C(=O)N[C@@H](CCSC)C(=O)N[C@@H](CCCNC(=N)N)C(=O)N[C@@H](CCCNC(=N)N)C(=O)N[C@H](C(=O)N[C@@H](CC1CCCCC1)C(=O)N[C@@H](Cc1c[nH]c2ccccc12)C(=O)N[C@@H](CC(C)C)C(=O)N[C@@H](CCCNC(=N)N)C(=O)N[C@@H](CCCCN)C(=O)N[C@@H](CCCCN)C(=O)N[C@@H](CC(C)C)C(=O)N[C@@H](CCC(N)=O)C(=O)N[C@@H](CC(=O)O)C(=O)N[C@H](C(N)=O)C(C)C)C(C)C
B3: the concentration for half-maximal inhibition (IC50) in experiment [1] came to 75 nM; in experiment [2] it was 126 nM. Moreover, the values for the fold change in binding affinity vs [Ala^1,Arg^19]PTH(1-31)NH2 in experiment [2] and in experiment [3] were less than 3 fold and not above 6 fold, respectively.

B4: [Ala^1,Arg^19]hPTH(1-31)NH2 Met^18→Cha (peptide)
peptide: AVSEIQLMHNLGKHLNS[Cha]RRVEWLRKKLQDV-NH2
modifications: N-terminus assumed
SMILES: CC[C@H](C)[C@H](NC(=O)[C@H](CCC(=O)O)NC(=O)[C@H](CO)NC(=O)[C@@H](NC(=O)[C@H](C)N)C(C)C)C(=O)N[C@@H](CCC(N)=O)C(=O)N[C@@H](CC(C)C)C(=O)N[C@@H](CCSC)C(=O)N[C@@H](Cc1c[nH]cn1)C(=O)N[C@@H](CC(N)=O)C(=O)N[C@@H](CC(C)C)C(=O)NCC(=O)N[C@@H](CCCCN)C(=O)N[C@@H](Cc1c[nH]cn1)C(=O)N[C@@H](CC(C)C)C(=O)N[C@@H](CC(N)=O)C(=O)N[C@@H](CO)C(=O)N[C@@H](CC1CCCCC1)C(=O)N[C@@H](CCCNC(=N)N)C(=O)N[C@@H](CCCNC(=N)N)C(=O)N[C@H](C(=O)N[C@@H](CCC(=O)O)C(=O)N[C@@H](Cc1c[nH]c2ccccc12)C(=O)N[C@@H](CC(C)C)C(=O)N[C@@H](CCCNC(=N)N)C(=O)N[C@@H](CCCCN)C(=O)N[C@@H](CCCCN)C(=O)N[C@@H](CC(C)C)C(=O)N[C@@H](CCC(N)=O)C(=O)N[C@@H](CC(=O)O)C(=O)N[C@H](C(N)=O)C(C)C)C(C)C
As to B4, the IC50 in experiment [1] amounted to 87 nM; in experiment [2], 408 nM. In addition, the results for the fold change in binding affinity vs [Ala^1,Arg^19]PTH(1-31)NH2 in experiment [2] and in experiment [3] were less than 3 fold and not above 6 fold, respectively.

B5: [Ala^1,Arg^19]hPTH(1-31)NH2 Arg^19→Cha (peptide)
peptide: AVSEIQLMHNLGKHLNSM[Cha]RVEWLRKKLQDV-NH2
modifications: N-terminus assumed
SMILES: CC[C@H](C)[C@H](NC(=O)[C@H](CCC(=O)O)NC(=O)[C@H](CO)NC(=O)[C@@H](NC(=O)[C@H](C)N)C(C)C)C(=O)N[C@@H](CCC(N)=O)C(=O)N[C@@H](CC(C)C)C(=O)N[C@@H](CCSC)C(=O)N[C@@H](Cc1c[nH]cn1)C(=O)N[C@@H](CC(N)=O)C(=O)N[C@@H](CC(C)C)C(=O)NCC(=O)N[C@@H](CCCCN)C(=O)N[C@@H](Cc1c[nH]cn1)C(=O)N[C@@H](CC(C)C)C(=O)N[C@@H](CC(N)=O)C(=O)N[C@@H](CO)C(=O)N[C@@H](CCSC)C(=O)N[C@@H](CC1CCCCC1)C(=O)N[C@@H](CCCNC(=N)N)C(=O)N[C@H](C(=O)N[C@@H](CCC(=O)O)C(=O)N[C@@H](Cc1c[nH]c2ccccc12)C(=O)N[C@@H](CC(C)C)C(=O)N[C@@H](CCCNC(=N)N)C(=O)N[C@@H](CCCCN)C(=O)N[C@@H](CCCCN)C(=O)N[C@@H](CC(C)C)C(=O)N[C@@H](CCC(N)=O)C(=O)N[C@@H](CC(=O)O)C(=O)N[C@H](C(N)=O)C(C)C)C(C)C
Consider B5, for which the results for the IC50 in experiment [1] and in experiment [2] were 233 nM and 780 nM, respectively. The fold change in binding affinity vs [Ala^1,Arg^19]PTH(1-31)NH2 in experiment [2] was less than 3 fold; in experiment [3], not above 6 fold.
